Data set [1] has as its target T1, CCK2 receptor (Homo sapiens, UniProt P32239).
T1 construct: expressed in transfected cells; host or cells: A431 human epidermoid carcinoma cells (A431-CCK2R), gift from Dr. L. Aloj
T1 sequence (P32239 1-447): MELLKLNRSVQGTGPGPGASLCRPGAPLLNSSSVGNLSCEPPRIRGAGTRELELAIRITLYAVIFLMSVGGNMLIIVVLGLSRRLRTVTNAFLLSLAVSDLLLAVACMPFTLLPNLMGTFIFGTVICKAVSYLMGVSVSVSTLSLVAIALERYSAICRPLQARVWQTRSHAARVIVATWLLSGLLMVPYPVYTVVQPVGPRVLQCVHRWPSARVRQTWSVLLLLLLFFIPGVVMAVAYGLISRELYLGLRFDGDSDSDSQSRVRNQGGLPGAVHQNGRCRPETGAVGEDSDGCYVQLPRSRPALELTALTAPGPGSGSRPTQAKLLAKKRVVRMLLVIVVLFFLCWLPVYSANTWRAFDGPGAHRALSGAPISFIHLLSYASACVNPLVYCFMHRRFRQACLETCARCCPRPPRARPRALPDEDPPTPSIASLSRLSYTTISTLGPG
The experiment in a line: Receptor binding affinity studies (IC50) on whole A431-CCK2R cells vs 125I-[Leu15]-gastrin I. As to conditions: natGa-labelled competitor, 125I-[Leu15]-Gastrin radioligand. On the procedure: Binding affinity studies on whole A431-CCK2R cells were performed as previously described. Briefly, 100 μL of cell suspension (5 × 10^6 cells/mL) was added to each well of a 96-well MultiScreen Filter Plate HTS (1 μm glass fiber filter, Merck Millipore, Darmstadt, Germany). Hereafter competitor solution was added with increasing concentrations [0.001−1.000 nM] and after 10 min at RT human [Leu^15]-gastrin I radiolabelled with iodine-125 as described in [16] was added (4.5 × 10^4 cpm) and the plate was maintained under shaking conditions (Compact shaker KS-15 control, 200/min) at ambient temperature. After 1 h each well was washed twice with 200 μL TRIS-buffered saline (pH 7.3), filters were collected and measured in the gamma counter followed by nonlinear curve fitting with Origin 6.1 software (Northampton, MA, USA) to calculate the IC50 values.

Data set [2] is classed as physicochemical. The conditions noted are these: for logD: pH 7.4. As for the experimental part:
To determine the distribution of the ^68Ga-radiolabelled conjugates between an organic and aqueous layer aliquots (50 μL) of the tracers (10 μM) were diluted in 450 μL PBS and after adding 500 μL octanol the mixture was vortexed at 1400 rpm (MS 3 basic vortexer, IKA, Staufen, Germany) for 15 min at RT followed by centrifugation for 2 min at 4500 rpm. Subsequently, aliquots (100 μL) of both layers were collected and measured in the gamma counter (Wizard2 3”, Perkin Elmer, Waltham, MA, USA) followed by logD calculation using Excel (n = 3, six replicates).

In data set [3] the test system is A431-CCK2R/A431-mock tumour xenografted BALB/c nude mice. The experiment in a line: in vivo. The conditions noted are these: mouse. As for the experimental part:
(§1) Ex vivo biodistribution studies were conducted using female 8−10 weeks old athymic BALB/c nude mice (Charles River Laboratories, Sulzfeld, Germany). Tumour xenografts were induced by subcutaneous injection of 2 × 10^6 A431-CCK2R cells (receptor positive) in the right and 2 × 10^6 A431-mock cells (receptor negative) in the left flank and tumours were allowed to grow until they had reached a volume of 0.3–0.6 cm^3.To evaluate the biodistribution profile double tumour xenografted BALB/c nude mice (n = 3) were intravenously injected with 1–2 MBq of ^68Ga-labelled peptides (0.1–0.2 nmol). The animals were sacrificed by cervical dislocation after 1 h and 4 h in case of the trimer. The collected samples were measured in the gamma counter and the results were calculated as percentage of injected activity per gram tissue (% IA/g).

Data set [4] in a line: in vivo. Also noted: species or system BALB/c nude mice. As to conditions: female, BALB/c nude, mouse, iv, total radioactivity. As for the experimental part: as §1

Marks after values point to notes of the source that are not given here. Starred links: 1 amine or outer side, 2 acyl side, 3 side chain; linkers in the order of their positions; H or OH if unused. Positions of bridges follow the written chain, without caps; N, C: chain ends. Non-standard residues stand in square brackets, D forms with d. Residues, ends and D or L forms follow the SMILES beside them. Chains are numbered I, II in the order given. *: point of attachment. X1 = CC1=CC(=O)N(O)CCCC(NC(=O)CCN2C(=O)CC([*:3])C2=O)C(=O)OCCC(C)=CC(=O)N(O)CCCC(NC(=O)CCN2C(=O)CC([*:2])C2=O)C(=O)OCCC(C)=CC(=O)N(O)CCCC(NC(=O)CCN2C(=O)CC([*:1])C2=O)C(=O)OCC1; X2 = CC(=O)NC1CCCN(O)C(=O)C=C(C)CCOC(=O)C(NC(=O)CCN2C(=O)CC([*:1])C2=O)CCCN(O)C(=O)C=C(C)CCOC(=O)C(NC(=O)CCN2C(=O)CC([*:2])C2=O)CCCN(O)C(=O)C=C(C)CCOC1=O; X3 = CC(=O)NC1CCCN(O)C(=O)C=C(C)CCOC(=O)C(NC(=O)CCN2C(=O)CC(*)C2=O)CCCN(O)C(=O)C=C(C)CCOC(=O)C(NC(C)=O)CCCN(O)C(=O)C=C(C)CCOC1=O; Nle = CCCC[C@H](N)C(=O)O; Mpa = O=C(O)CCS

In data set [1], `CCCC[C@H](NC(=O)[C@H](Cc1c[nH]c2ccccc12)NC(=O)CNC(=O)[C@H](Cc1ccc(O)cc1)NC(=O)[C@H](C)NC(=O)[C@@H](CCC(=O)O)NC(=O)CCSC1CC(=O)N(CCC(=O)NC2CCCN(O)C(=O)C=C(C)CCOC(=O)C(NC(=O)CCN3C(=O)CC(SCCC(=O)N[C@H](CCC(=O)O)C(=O)N[C@@H](C)C(=O)N[C@@H](Cc4ccc(O)cc4)C(=O)NCC(=O)N[C@@H](Cc4c[nH]c5ccccc45)C(=O)N[C@@H](CCCC)C(=O)N[C@@H](CC(=O)O)C(=O)N[C@@H](Cc4ccccc4)C(N)=O)C3=O)CCCN(O)C(=O)C=C(C)CCOC(=O)C(NC(=O)CCN3C(=O)CC(SCCC(=O)N[C@H](CCC(=O)O)C(=O)N[C@@H](C)C(=O)N[C@@H](Cc4ccc(O)cc4)C(=O)NCC(=O)N[C@@H](Cc4c[nH]c5ccccc45)C(=O)N[C@@H](CCCC)C(=O)N[C@@H](CC(=O)O)C(=O)N[C@@H](Cc4ccccc4)C(N)=O)C3=O)CCCN(O)C(=O)C=C(C)CCOC2=O)C1=O)C(=O)N[C@@H](CC(=O)O)C(=O)N[C@@H](Cc1ccccc1)C(N)=O` (stereo partly drawn) [Trimer-Nle] (I: [Mpa][dE]AYGW[Nle]DF-NH2 / II: [Mpa][dE]AYGW[Nle]DF-NH2 / III: [Mpa][dE]AYGW[Nle]DF-NH2; linker I:1-II:1-III:1 via X1) returned an IC50 of 20.9 ± 1.13 nM. Moreover, the “Distribution coefficient logD (pH 7.4)” value in data set [2] was -1.80 ± 0.16.

For `CCCC[C@H](NC(=O)[C@H](Cc1c[nH]c2ccccc12)NC(=O)CNC(=O)[C@H](Cc1ccc(O)cc1)NC(=O)[C@H](C)NC(=O)[C@@H](CCC(=O)O)NC(=O)CCSC1CC(=O)N(CCC(=O)NC2CCCN(O)C(=O)C=C(C)CCOC(=O)C(NC(=O)CCN3C(=O)CC(SCCC(=O)N[C@H](CCC(=O)O)C(=O)N[C@@H](C)C(=O)N[C@@H](Cc4ccc(O)cc4)C(=O)NCC(=O)N[C@@H](Cc4c[nH]c5ccccc45)C(=O)N[C@@H](CCCC)C(=O)N[C@@H](CC(=O)O)C(=O)N[C@@H](Cc4ccccc4)C(N)=O)C3=O)CCCN(O)C(=O)C=C(C)CCOC(=O)C(NC(C)=O)CCCN(O)C(=O)C=C(C)CCOC2=O)C1=O)C(=O)N[C@@H](CC(=O)O)C(=O)N[C@@H](Cc1ccccc1)C(N)=O` (stereo partly drawn) [Dimer-Nle] (I: [Mpa][dE]AYGW[Nle]DF-NH2 / II: [Mpa][dE]AYGW[Nle]DF-NH2; linker I:1-II:1 via X2), the “Ratio T/O tumour-to-A431-mock” value in data set [3] is 8.0 ± 1.8^c. For the same compound, the tissue uptake at 1 h in data set [4] (A431-CCK2R tumour uptake) was 5 ± 0.79 %ID/g; in data set [4] (A431-mock tumour uptake), 0.65 ± 0.14 %ID/g; in data set [4] (Blood uptake), 1.4 ± 0.48 %ID/g; in data set [4] (Bone uptake), 0.8 ± 0.37 %ID/g; in data set [4] (Heart uptake) it was 0.62 ± 0.12 %ID/g; in data set [4] (Intestine uptake), 0.64 ± 0.12 %ID/g. For the same compound, the tissue uptake at 1 h in data set [4] (Kidneys uptake) came out at 12.8 ± 0.16 %ID/g; in data set [4] (Liver uptake), 3.49 ± 0.94 %ID/g; in data set [4] (Lung uptake), 1.54 ± 0.33 %ID/g; in data set [4] (Muscle uptake), 0.36 ± 0.12 %ID/g; in data set [4] (Pancreas uptake), 0.98 ± 0.28 %ID/g; in data set [4] (Spleen uptake) it was 0.95 ± 0.07 %ID/g. For the same compound, the tissue uptake at 1 h in data set [4] (Stomach uptake) was 2.25 ± 0.17 %ID/g. Moreover, the tissue to tissue ratio at 1 h turned out to be 4 ± 1.3 in data set [4] (Ratio T/O tumour-to-Blood); 7.6 ± 3.2 in data set [4] (Ratio T/O tumour-to-Bone); 8.2 ± 1.2 in data set [4] (Ratio T/O tumour-to-Heart); 8.1 ± 1.8 in data set [4] (Ratio T/O tumour-to-Intestine); 0.39 ± 0.06 in data set [4] (Ratio T/O tumour-to-Kidneys); 1.5 ± 0.4 in data set [4] (Ratio T/O tumour-to-Liver). The tissue to tissue ratio at 1 h in data set [4] (Ratio T/O tumour-to-Lung) turned out to be 3.3 ± 0.5; in data set [4] (Ratio T/O tumour-to-Muscle) it was 15.8 ± 5.8; in data set [4] (Ratio T/O tumour-to-Pancreas), 5.4 ± 1.3; in data set [4] (Ratio T/O tumour-to-Spleen) it was 5.2 ± 0.5; in data set [4] (Ratio T/O tumour-to-Stomach), 2.2 ± 0.3. The logD in data set [2] was -2.05 ± 0.19.

For the compound `CCCC[C@H](NC(=O)[C@H](Cc1c[nH]c2ccccc12)NC(=O)CNC(=O)[C@H](Cc1ccc(O)cc1)NC(=O)[C@H](C)NC(=O)[C@@H](CCC(=O)O)NC(=O)CCSC1CC(=O)N(CCC(=O)NC2CCCN(O)C(=O)C=C(C)CCOC(=O)C(NC(C)=O)CCCN(O)C(=O)C=C(C)CCOC(=O)C(NC(C)=O)CCCN(O)C(=O)C=C(C)CCOC2=O)C1=O)C(=O)N[C@@H](CC(=O)O)C(=O)N[C@@H](Cc1ccccc1)C(N)=O` (stereo partly drawn) [Monomer-Nle] ([Mpa](X3)[dE]AYGW[Nle]DF-NH2), the “Ratio T/O tumour-to-A431-mock” value in data set [3] is 9.8 ± 2.2^b. Besides, the tissue uptake at 1 h in data set [4] (A431-CCK2R tumour uptake) came out at 1.97 ± 0.25 %ID/g; in data set [4] (A431-mock tumour uptake) it was 0.22 ± 0.07 %ID/g; in data set [4] (Blood uptake), 0.25 ± 0.07 %ID/g; in data set [4] (Bone uptake), 0.3 ± 0.12 %ID/g; in data set [4] (Heart uptake), 0.12 ± 0.03 %ID/g; in data set [4] (Intestine uptake), 0.36 ± 0.12 %ID/g. Further, the tissue uptake at 1 h stood at 2.72 ± 0.29 %ID/g in data set [4] (Kidneys uptake); 0.17 ± 0.01 %ID/g in data set [4] (Liver uptake); 0.25 ± 0.03 %ID/g in data set [4] (Lung uptake); 0.1 ± 0.02 %ID/g in data set [4] (Muscle uptake); 0.24 ± 0.02 %ID/g in data set [4] (Pancreas uptake); 0.1 ± 0.03 %ID/g in data set [4] (Spleen uptake). In addition, the tissue uptake at 1 h in data set [4] (Stomach uptake) was determined as 0.66 ± 0.11 %ID/g. Besides, the tissue to tissue ratio at 1 h in data set [4] (Ratio T/O tumour-to-Blood) was 9 ± 3.6; in data set [4] (Ratio T/O tumour-to-Bone), 7.9 ± 3.1; in data set [4] (Ratio T/O tumour-to-Heart), 17.6 ± 5.2; in data set [4] (Ratio T/O tumour-to-Intestine) it was 6.6 ± 3.6; in data set [4] (Ratio T/O tumour-to-Kidneys) it was 0.75 ± 0.18; in data set [4] (Ratio T/O tumour-to-Liver), 11.5 ± 2. Moreover, the tissue to tissue ratio at 1 h in data set [4] (Ratio T/O tumour-to-Lung) came to 8.1 ± 2.1; in data set [4] (Ratio T/O tumour-to-Muscle), 22.1 ± 6; in data set [4] (Ratio T/O tumour-to-Pancreas) it was 8.4 ± 1.6; in data set [4] (Ratio T/O tumour-to-Spleen), 19.8 ± 4; in data set [4] (Ratio T/O tumour-to-Stomach), 3.1 ± 0.9. The compound also showed a pH-dependent lipophilicity (logD) in data set [2] of -2.69 ± 0.14.

Source of the values: article PMC6066219 (PLoS ONE, 2018).
